The target in the assay is T1, APCDD1 bait fused to the C terminus of Fc (mouse, UniProt Q3U128 27-492).
T1 construct: mouse APCDD1, entire extracellular domain, fused to the C terminus of Fc; secreted with the mouse FZD8 signal peptide; also called Fc-bait; source: HEK293T, transiently transfected, serum-free conditioned medium; captured on proteinG; not shown: Fc (human IgG1), N-terminal, kept
Description: SPR; Biacore, single-cycle kinetics/affinity, five-point dose response; bait-Fc on a proteinG chip; CC4-MBP in the mobile phase; done at Cayman Chemical. To be noted: both partners purified. On the technique in general: SPR reads the build-up and loss of mass on a sensor chip optically.

T1 sequence (Q3U128 27-492): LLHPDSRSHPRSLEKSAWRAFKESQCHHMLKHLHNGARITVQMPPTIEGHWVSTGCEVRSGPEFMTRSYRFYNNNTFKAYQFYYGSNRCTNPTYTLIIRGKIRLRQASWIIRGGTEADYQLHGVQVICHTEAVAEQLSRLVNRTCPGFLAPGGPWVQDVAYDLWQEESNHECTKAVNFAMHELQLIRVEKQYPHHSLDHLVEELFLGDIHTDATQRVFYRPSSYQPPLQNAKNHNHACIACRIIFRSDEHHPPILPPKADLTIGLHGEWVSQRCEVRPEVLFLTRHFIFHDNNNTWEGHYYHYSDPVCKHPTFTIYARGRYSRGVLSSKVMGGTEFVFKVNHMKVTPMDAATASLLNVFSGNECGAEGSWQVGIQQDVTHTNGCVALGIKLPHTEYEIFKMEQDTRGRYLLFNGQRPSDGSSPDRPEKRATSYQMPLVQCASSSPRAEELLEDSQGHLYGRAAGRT

B1: WT CC4-MBP (domain or fragment, mouse)
chain: PMRNPTDSLYCCDRAEDHACQNACKRILMSKKTEMEIVDGLIEGCKTQPLPQDPLWQCFLESSQS
notes: mouse RECK, CC domain 4 (CC4), a 4-helix bundle of 65 amino acids; also called RECK(CC4); source: E. coli SHuffle, purified (Ni-NTA)
In general, Kd refers to the equilibrium constant for the complex coming apart. The low end stands for tighter binding, the high end for weaker binding. B1 gave a dissociation constant Kd greater than 50 µM.

Source of the values: publication PMC11107207, “Utility of protein–protein binding surfaces composed of anti-parallel alpha-helices and beta-sheets selected by phage display” (The Journal of Biological Chemistry, 2024).
